The DeepSol protein solubility set

Experiment: soluble on expression in E. coli; label from the status in PepcDB or PDB records

Sequence	soluble on expression in E. coli
ELDWFARRGLKEPNLAELLDLVALGSVADVVPLDANNRILVHQGLARIRAGRARPGLRALLEVAGRPPVRITSTDLGFILGPRLNAAGRLDDMSLGIECLLCDDEALARDMAVQLDQLNQDRKAIEQGMQREALAQLKELSLEQLPFGLCLFDADWHQGVIGILASRLKERYHRPTIAFADAGDGSLKGSARSIPGFHIRDALDAVAARHPGLISKFGGHAMAAGLSLPQENFGAFSAAFDAEVRRQLAEEDLAGRLLSDGQLSIQEFHLELARALRQAGPWGQHFPEPMFHGVFQLVQQRIVGERHLKLVLKSECGSLQLDGIAFNIDREQWPNPTVRWAELAYKLDVNEFRGQESVQL	not soluble
ELVMTQTPLSLPVSLGDQASISCRSSQSLVHSNGNTYLHWYLQKPGQSPKFLIYKVSNRFSGVPDRFSGSGSGTDFILKISRVEAEDLGVYFCFQSTHFFPTFGGGTKLEIKRTVAAPSVFIFPPSDEQLKSGTASVVCLLNNFYPREAKVQWKVDNALQSGNSQESVTEQDSKDSTYSLSSTLTLSKADYEKHKVYACEVTHQGLSSPVTKSFNRGEC	soluble
ENVLTQSPAIMSPSPGEKVTMTCRARSSVSSSYLHWYQQKSGASPKLWIYSTSNLASGVPARFSGSGSGTSYSLTISSVEAEDTATYYCQQYSGNPWTFGGGTKLEIKRADAAPTVSIFPPSSEQLTSGGASVVCFLNNFYPKDINVKWKIDGSERQNGVLNSWTDQDSKDSTYSMSSTLTLTKDEYERHNSYTCEATHKTSTSPIVKSFNRNEC	soluble
ESRLDRILESGVLRVATTGDYKPFSYRTEEGGYAGFDVDMAQRLAESLGAKLVVVPTSWPNLMRDFADDRFDIAMSGISINLERQRQAYFSIPYLRDGKTPITLCSEEARFQTLEQIDQPGVTAIVNPGGTNEKFARANLKKARILVHPDNVTIFQQIVDGKADLMMTDAIEARLQSRLHPELCAVHPQQPFDFAEKAYLLPRDEAFKRYVDQWLHIAEQSGLLRQ	not soluble
EVKQFNTYANNLAKIKQKVILMGLLTEAKLEQYKGLSVDEVEAQTEFSFQDAIYSLSPYEKLNYVEAVARKSLHQAEAYLSNAFNRQNAIMYFRSYTGSKLILERPIKALEGVKATFDVDWCKSNYSCVLAAWKEQLTDRVLFSLPFKTTYSDDMAISIMSPVYFQGELVGEFSEQLYLSSLYNEGKAVDVQISNGNKQMVIYFSGYPWPSFAYTQSFVADNNNLIVYMYPFSKV	not soluble
EVQLQQSGPELKKPGETVKISCKATNYAFTDYSMHWVKQAPGGDLKYVGWINTETDEPTFADDFKGRFAFSLDTSTSTAFLQINNLKNEDTATYFCVRDRHDYGEIFTYWGQGTTVTVSA	soluble
FASVLQGVFEYPYGCAEQTASKGYAALWLDDATIRSLGIQGVTPAQRLERLEGALGRLASLQTTNGHFSMWGGNSDVNPVLTPYIAGFLLDAKDAGFAVSDAVLQKALNRLSEDLLSGAHLFYGNDQSEALMFAHQAWSGYVLARVNRAPLGTLRTLYDNERGKAVSGLSLVHLGVALSLQGDRKRGEAAIEAGFAKSEGGRPEVFGDYGSVIRDNALMIALVRAHGLAKPAYEARVMALGRDLQARRRSGWLWLSTQEQVALAQ	not soluble
FEKHGTYYEIFVRSFYDSDGDGIGDLKGIIEKLDYLNDGDPETIADLGVNGIWLMPIFKSPSYHGYDVTDYYKINPDYGTLEDFHKLVEAAHQRGIKVIIDLPINHTSERHPWFLKASRDKNSEYRDYYVWAGPDTDTKETKLDGGRVWHYSPTGMYYGYFWSGMPDLNYNNPEVQEKVIGIAKYWLKQGVDGFRLDGAMHIFPPAQYDKNFTWWEKFRQEIEEVKPVYLVGEVWDISETVAPYFKYGFDSTFNFKLAEAVIATAKAGFPFGFNKKAKHIYGVYDREVGFGNYIDAPFLTNHDQNRILDQLGQDRNKARVAASIYLTLPGNPFIYYGEEIGMRGQGPHEVIREPFQWYNGSGEGETYWEPAMYNDGFTSVEQEEKNLDSLLNHYRRLIHFRNENPVFYTGKIEIINGGLNVVAFRRYNDKRDLYVYHNLVNRPVKIKVASGNWTLLFNSGDKEITPVEDNNKLMYTIPAYTTIVLEKE	soluble
FFTPPHIVQLCVRLVDDFADGMTFHDPTVGSGGMLTEAAKYYREAQGGDPSKLTFTGQEINPDIAAIARMNLSLHTLNGEIERGDSLASPGFTDGDDLERFDRVLANFPFSADWAKDDLQDDQYGRFDWHTKLPRADRGDYAFIMHIAEQLKEPDCGDESGGKAAIVIPHGVLFRKHEQRYRQPMLENDLVEAIVGLPENLFQNNSIPSAILVLNTDKPADREGEVQFIHAADEAFYEELSNQNELTDDGLDHIVENFDDWTTE	not soluble
FGIIRGLMMHVTLVEINVHDDKVEQFIDVFRQNHLGSIKEPGNLRFDVLQDPQVLTRFYIYEAYVDEQAVAFHKTTPHYKTCVEQLEPLMTGPRTKKVFMGL	not soluble
FIKLPEFKLNYHNKSYRQYGRGFALQNTNFRPGSSGTLMLNNQKQIAGIYFGVLDFGEDVSLMSNIGVGQILRVPQKNNTRNR	not soluble
FLPTSREEMDQLGWDSCDVIIVTGDAYVDHPSFGMAIIGRLLEAQGFRVGIIAQPEWQTKDAFMTLGKPNLFFGVTAGNMDSMINRYTADKKIRHDDAYTPNNKGGMRPDRCSLVYSQRCREAYKDVPIVLGGIEASLRRVAHYDYWSDKVRRSILLDAKADILLFGNAERALVEVAHRLANGESINKMVDIRGTAVNLAQVPEHFKIIDSTRIDQPNKPFVPSNPYEVETQCATKGDEKEEAQPITIRPSRHDAKTTAVRLPSFEKLVNDRILYAHASRVLHLETNPYSGRALVQRHGDRELWVNQAPIPLTTEEMDFVFGLYYARVPHPKYGDAKIPAYDMIKTSVNIMRGCF	not soluble
FNDEGEMHLPGQYDMLKARLAKNPGAELLIFIHGWHHNAAPTDDNFVAFQRFHRQMAKTNPGLIGLYIGWRGDQYDPLWLDGSDDPESRVEALDFPTILTSKQVARRVGEHGVRKLLSSLDELHRQGTLGRYILVGHSLGGVVALHA	not soluble
FPSTYLSHRQETIGQKATAIAQSLEGKDRQSIEQVLDLYSQTSDIKGTVKGEMTEDKLEVKDSLPLDTDRQTTSLFIEEREVKTQDGGTMILQFLASMDLQKEAEQ	not soluble
FSAPIKAERTAFRRAVCANQYDAVIDAQGLVKSAALVTRLAHGIKHGMDWSTAREPLASLFYNRKHHIAKQQHAVERTRELFAKSLGYDKPQSQGDYAIAKHFLHCQQAVSDPYAVFLHATTRDDKHWPEANWRELIGLVGNTGLRIKLPWGAPHEEARAKRLAEGFDYVDVLPRMSLEEVARVLAGAKFVVSVDTGLSHLTAALDRPNITLYGPTDPGLIGGYGKNQ	not soluble
FVAHSSGQEVKLDKAPIDRADKESLQRGAKGFVEYCLTCHGANFMRFNRHHDIGMSEDDIRADLIHTGQKTGDLMEAAMRKKEAEGWFGVVPPDLSVIARARGADWLYTYLRTFYQDTSTYSGWNNLIFDKVAMPHVLHHLQGWQVLEPGTGNLVQTKPGTMTKEEYDRFVADLVNYMVYLGEP	not soluble
FVDPLCPECWSLEPVIKKLKIRYGRFFTLRIIASASLTALNKKRKKHLLAEAWEKIASRSGMSCDGNVWFEQDQPLSSPYMAALAFKAAELQGRKAGMQFLRNMQESLFVSKKNITDENVLLEIAENTSLDLEEFKKDLHSQSAVKALQCDMKIAAEMDVSVNPTLTFFNTQHEDEGLKVPGSYSYDVYEEILFEMLGDE	not soluble
GAADMPFRWSFMADGKSLIAAQPDDARVIADTEALAGWYGGMTSLAPKQIKLFADGAIYSQLMQVRDPFLDGHKGEWMMDLDQFQRAFRVYWDAGYQLHVHVNGDAGLDRVLDTLETNLRRTPRDDHRTTIVHFAVSGADQVLRIRDLGAIVSANPYYVAALADNYGEVGLGPDRADNMVRLGDVEAAGISWSLHSDMPMAPCDPLFLMWCAVNRVTSSGRVAGPAQRVSAETALRGVTINAAYSLKLEHEIGSIEPGKRANLTILGDNPLTVDPEKIRDIAVIGTVMEGRDFP	not soluble
GAHTVDKRFGMDFKEIELIGSGGFGQVFKAKHRIDGKTYVIKRVKYNNEKAEREVKALAKLDHVNIVHYNGCWDGFDYDPETSSKNSSRSKTKCLFIQMEFCDKGTLEQWIEKRRGEKLDKVLALELFEQITKGVDYIHSKKLINRDLKPSNIFLVDTKQVKIGDFGLVTSLKNDGKRTRSKGTLRYMSPEQISSQDYGKEVDLYALGLILAELLHVCDTAFETSKFFTDLRDGIISDIFDKKEKTLLQKLLSKKPEDRPNTSEILRTLTVWKKSPEKNERHTA	soluble
GAKSEMAFAGKGEISPRAITMWDFSWLERRWPGAGYEDWDQVLDELSERGYNAIRIDAYPHLIAENPMKKWLLKEVWNQQDWGSPDMNEVQVQPNLNLFLSKCKERDIKVGLSSWYRLDVDEVCLKLDTPEKLADCWLTILRSIEEDGLLDTILYVDLCNEWPGDSWAPFFAKTYPNVGWGNWYKEESLRWMKTSLEKMRQVYPDMPFLYSFDHGDVKKYEEVDCSFLDLYEHHIWMAQQNGGEFYKLVGYGYNRFLPDDYKNVVKNAERVYRERPGYWQKLLTDKIELMASVARKNRRPLVTTECWGLVDYKDWPLLKWDWVKDLCELGTITAARTGMWVGVATSNFCGPQFAGMWRDVEWHKRLTSIIRSSPLDESLTKNNEVAAKLLKRL	soluble
GAMALVDGFLELERSSGKLEWSAILQKMASDLGFSKILFGLLPKDSQDYENAFIVGNYPAAWREHYDRAGYARVDPTVSHCTQSVLPIFWEPSIYQTRKQHEFFEEASAAGLVYGLTMPLHGARGELGALSLSVEAENRAEANRFMESVLPTLWMLKDYALQSGAGLAFEHPVSK	soluble
GAMVSGQIMHAVGEEGGHVKYVCKIENYDQSTQVTWYFGVRQLENSEKYEITYEDGVAILYVKDITKLDDGTYRCKVVNDYGEDSSYAELFVKGVRE	soluble
GANNDMPVEQILEAELAVDPKIDTYIDAQKDPVTNICQAADKQLFTLVEWAKRIPHFTELPLEDQVILLRAGWNELLIAGFSHRSIMAKDGILLATGLHVHRSSAHQAGVGTIFDRVLTELVAKMRDMKMDKTELGCLRAVVLFNPDAKGLTAVQEVEQLREKVYASLEEYTKSRYPEEPGRFAKLLLRLPALRSIGLKCLEHLFFFKLIGDQPIDTFLMEMLENPSPAT	soluble
GARIKTLSVSRPIIYGNTAKKMGSVKPPNAPAEHTHLWTIFVRGPQNEDISYFIKKVVFKLHDTYPNPVRSIEAPPFELTETGWGEFDINIKVYFVEEANEKVLNFYHRLRLHPYANPVPNSDNGNEQNTTDHNSKDAEVSSVYFDEIVFNEPNEEFFKILMSR	soluble
GFSSEVLKKAYDDTEDIEDQLQQAEGRLFEISQHNMKQDVQPIDPIIKEALGEIQIAANRKEGLSGQPSGFPAIDKLTAGWQASDLIIIAARPAMGKTAFVLSMAKNMAIDYNIPVAIFNLEMSSVQLVKRLMSNVCEIPGEKLKTGRLESHEWVQLDTKLKDFENKPLYIDDTPSLSVFELRTKSRRLVREYGVKVIIIDYLQLMNASGMSFGNREQEVSTISRSLKVLAKELKIPIIALSQLNRSVETRQGDINSKRPQLSDLRESGAIEQDADMVCFIHRPEYYKITEDQQGNSLLGIGEFIIAKHRNGPVDDVRLRFRSEFAKFLPLEAESMVKRHSRIGGSPVEMGVGNGSFAPPLPPPEDNPLLSGPYSSGTSEADFLAEASGIDNPF	not soluble
GGDGNITTENIPVSEYDCLELEGGGMVVNYTQSDAPEGLEIKTDRNIFEKYEFNVENHKLKIRPKKEFRKHTNFRPTEFMVTANSRNLKKLAAAGSTHVNINSPLQAEEFEAGLAGSGIIQFHDTASFTNLKIEIAGSGDFVGHKVYCEELNGDMAGSNTIVLGGTVGIAEFSIAGSGTVRAFDCTMDELECKIAGSGDIEAFVVNKIKAEIAGSGSVKYKGDPQDIQKKVMGSGKIEKVE	soluble
